Data on two molecules can be found in PMC10558373, “[^68Ga]Ga-NODAGA-E[(cRGDyK)]2 angiogenesis PET following myocardial infarction in an experimental rat model predicts cardiac functional parameters and development of heart failure” (Journal of Nuclear Cardiology, 2023).

[ ]: non-standard residue; d: D form.

The target of test [1] is integrin αvβ3 (UniProt P06756). Briefly: SPR; Biacore X100, CM5 chip, integrin αvβ3 amine-coupled (~4200 RU), single cycle kinetics; running buffer Tris-HCl 20 mM, NaCl 150 mM, P20 0.05%, MgCl2 1 mM, pH 7.4; kinetic fit, steady state fit for fibronectin.
In test [2] the target is integrin αvβ3 (UniProt P06756). Briefly: SPR; Biacore X100, CM5 chip, integrin αvβ3 amine-coupled (~4200 RU), single cycle kinetics; running buffer Tris-HCl 20 mM, NaCl 150 mM, P20 0.05%, MgCl2 1 mM and MnCl2 1 mM, pH 7.4; kinetic fit, steady state fit for fibronectin. On the technique in general: SPR reads the build-up and loss of mass on a sensor chip optically.
For test [3], the target named is T1, integrin αvβ3 (UniProt P06756 31-1048; P05106 27-788).
T1 chain 1: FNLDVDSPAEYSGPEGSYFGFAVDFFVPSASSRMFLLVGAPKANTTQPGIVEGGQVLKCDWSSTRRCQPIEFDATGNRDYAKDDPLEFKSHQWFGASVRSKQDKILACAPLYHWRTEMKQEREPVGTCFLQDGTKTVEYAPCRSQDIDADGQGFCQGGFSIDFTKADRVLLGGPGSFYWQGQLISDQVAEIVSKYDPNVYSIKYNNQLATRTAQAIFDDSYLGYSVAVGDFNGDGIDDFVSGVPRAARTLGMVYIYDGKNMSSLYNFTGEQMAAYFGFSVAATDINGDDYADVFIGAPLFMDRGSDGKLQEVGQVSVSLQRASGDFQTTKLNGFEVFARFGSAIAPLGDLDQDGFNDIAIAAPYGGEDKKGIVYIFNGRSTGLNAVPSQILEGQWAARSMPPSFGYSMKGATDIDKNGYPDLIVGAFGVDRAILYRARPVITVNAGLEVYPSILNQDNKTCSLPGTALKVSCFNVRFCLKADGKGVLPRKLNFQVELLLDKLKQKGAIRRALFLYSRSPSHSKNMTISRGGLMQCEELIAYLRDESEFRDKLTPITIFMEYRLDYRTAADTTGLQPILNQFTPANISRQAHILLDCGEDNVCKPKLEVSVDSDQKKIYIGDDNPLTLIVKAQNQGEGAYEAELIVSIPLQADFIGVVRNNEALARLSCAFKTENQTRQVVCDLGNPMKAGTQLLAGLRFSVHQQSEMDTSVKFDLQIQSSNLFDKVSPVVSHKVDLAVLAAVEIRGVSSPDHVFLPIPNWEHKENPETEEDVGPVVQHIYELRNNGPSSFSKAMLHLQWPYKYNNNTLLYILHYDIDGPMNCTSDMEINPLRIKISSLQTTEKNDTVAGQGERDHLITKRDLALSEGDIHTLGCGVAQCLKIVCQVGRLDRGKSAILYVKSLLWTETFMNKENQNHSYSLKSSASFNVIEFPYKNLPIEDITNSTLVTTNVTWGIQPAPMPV
T1 chain 2: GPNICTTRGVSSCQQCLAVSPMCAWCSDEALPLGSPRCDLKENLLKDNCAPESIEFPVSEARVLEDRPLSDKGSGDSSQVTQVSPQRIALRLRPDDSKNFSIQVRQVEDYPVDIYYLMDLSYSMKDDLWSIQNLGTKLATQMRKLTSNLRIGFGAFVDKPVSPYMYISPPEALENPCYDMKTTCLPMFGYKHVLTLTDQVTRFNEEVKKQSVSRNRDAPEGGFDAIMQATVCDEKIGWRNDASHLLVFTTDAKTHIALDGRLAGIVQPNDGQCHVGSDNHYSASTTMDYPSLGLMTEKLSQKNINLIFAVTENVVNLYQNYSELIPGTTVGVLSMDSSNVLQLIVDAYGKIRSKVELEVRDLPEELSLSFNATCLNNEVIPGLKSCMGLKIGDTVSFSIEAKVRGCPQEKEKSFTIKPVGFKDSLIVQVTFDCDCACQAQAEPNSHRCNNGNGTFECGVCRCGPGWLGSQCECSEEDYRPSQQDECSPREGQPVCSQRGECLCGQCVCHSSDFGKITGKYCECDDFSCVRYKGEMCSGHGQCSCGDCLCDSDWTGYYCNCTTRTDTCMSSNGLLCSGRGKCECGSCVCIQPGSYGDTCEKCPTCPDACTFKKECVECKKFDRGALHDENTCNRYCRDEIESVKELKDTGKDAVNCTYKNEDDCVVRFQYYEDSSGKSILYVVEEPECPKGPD
Briefly: SPR; Mg2+.

The target of test [4] is integrin αvβ3 (UniProt P06756). Briefly: SPR; Biacore X100, CM5 chip, integrin αvβ3 amine-coupled (~4200 RU), single cycle kinetics; running buffer Tris-HCl 20 mM, NaCl 150 mM, P20 0.05%, MgCl2 1 mM, pH 7.4; kinetic fit, steady state fit for fibronectin. The source holds these as a separate data set.
Test [5] deals with T1, integrin αvβ3. Briefly: SPR; Mg2+ + Mn2+.
Test [6] addresses integrin αvβ3 (UniProt P06756). Briefly: SPR; Biacore X100, CM5 chip, integrin αvβ3 amine-coupled (~4200 RU), single cycle kinetics; running buffer Tris-HCl 20 mM, NaCl 150 mM, P20 0.05%, MgCl2 1 mM and MnCl2 1 mM, pH 7.4; kinetic fit, steady state fit for fibronectin. This is another data set of the same source.
Test [7] concerns the target integrin αvβ3 (UniProt P06756 31-1048; P05106 27-788). Briefly: SPR; Biacore X100, single cycle kinetics, in the presence of Mg2+ and Mn2+. As to conditions: both partners purified.
Test [8] deals with T1, integrin αvβ3. Briefly: SPR; Mg2+.
In test [9] the target is T1, integrin αvβ3. Briefly: SPR; Mg2+ + Mn2+.

In the test with integrin αvβ3 [1], “vitronectin (from UniProt P04004 20-478) (ligand)” had a Kd of 1.3 nM, a koff of 0.00021 s⁻¹ and an on-rate (kon) of 32000 M⁻¹ s⁻¹. In the test with integrin αvβ3 [2], this molecule gave an equilibrium dissociation constant (Kd) of 24 nM, a dissociation rate constant (koff) of 0.00032 s⁻¹ and a kon of 13000 M⁻¹ s⁻¹.

B1: [^68Ga]Ga-NODAGA-E[(cRGDyK)]2 (peptide)
chain: cyclo(RGD[dY]K)
modifications: also: dimer of two cyclic peptides on a Glu linker, NODAGA chelator with 68Ga
As to B1, the dissociation constant Kd with integrin αvβ3 [3] is 0.075 nM; with integrin αvβ3 [4], 0.075 nM; with integrin αvβ3 [5] it was 0.00071 nM; in the test with integrin αvβ3 [6], 0.00071 nM. The off-rate (koff) with integrin αvβ3 [4] turned out to be 7e-05 s⁻¹; in the test with integrin αvβ3 [6], 2.5e-07 s⁻¹; in the test with integrin αvβ3 [8], 7e-05 s⁻¹; with integrin αvβ3 [9], 2.5e-07 s⁻¹. Further, the association rate constant (kon) with integrin αvβ3 [4] was 930000 M⁻¹ s⁻¹; in the test with integrin αvβ3 [6], 350000 M⁻¹ s⁻¹. In addition, the “fold stronger binding than vitronectin” value with integrin αvβ3 [7] was determined as 1000 fold.

One may read the Kd as the free concentration of one partner at which half of the binding sites on the other are occupied at equilibrium, for simple one-to-one binding. One may read the koff as a measure of how fast the partners let go of each other. Usually kon stands for a measure of how fast the partners come together.
